Experimental data published in patent US20250205324A1, “ANTIGENIC PEPTIDES FOR PREVENTION AND TREATMENT OF CANCER” (ENTEROME S.A., priority 2022, published 2025).
“Also recorded” adds a separate entry of the source. Read-outs that look alike come from different tables or passages of the source. Where no end group is shown, it is not given here.

Legend:
HLA-A*0201 = target: T1, HLA-A*0201 (Homo sapiens, UniProt P04439, D140Y/D185E/D98H/E176V/E277Q/G131W/G231S/I119V/I121R/I166T/I218V/L300P/L318F/N151K/N90K/P208A/P217A/Q86G/Q94H/R138H/R169H/T345S); test: Affinity of the peptide to T2 cell line (HLA-A*0201 binding, FACS with anti-HLA-A2 antibody); conditions: T2 cells
T1 construct: human tumoral cell T2 which expresses the HLA-A*0201 molecule; endogenous in cells; host or cells: T2 cells (human, TAP1/2 negative)
Procedure: (§1) T2 cells (5·10^4 cells per well) are incubated with decreasing concentrations of peptides from 100 μM to 0.1 μM (4 points: 100 μM, 10 μM, 1 μM, 0.1 μM) in serum-free medium (TexMacs) supplemented with 100 ng/μl of 2 Microglobulin at 37° C. for 16 hours.
The analysis is achieved by FACS (Macsquant analyzer 10 or a Macsquant analyzer 16-Miltenyi).

[1] = system: HHD DR1 HLA-A2 transgenic mice; test: ELISPOT-IFNγ assay on splenocytes of vaccinated HLA-A2 transgenic mice; type: in vivo, mouse; conditions: for immunogenicity: T cell response in ELISPOT-IFNγ: 30 nmol peptide + UCP2 helper in Montanide ISA 51 VG s.c., prime d0, boost d14, spleen d21, restimulation 10 μM; for cross-reactivity of induced T cells with the corresponding human peptide in ELISPOT-IFNγ: prime d0, boost d14, spleen d21, challenge with human peptide 10 μM
Procedure: Briefly, HLA-A2 HHD-DR1 humanized mice (C57BL/6JB2mtm1UnclAb−/−Tg(HLA-DRA, HLA-DRB1*0101)#GjhTg(HLA-A/H2-D/B2M)1 Bpe) were assigned randomly (based on mouse sex and age) to experimental groups, wherein each group was immunized with a specific vaccination peptide (vacc-pAg) combined to a common helper peptide (h-pAg UCP2; sequence: […]; SEQ ID NO: 39) (as outlined in Table 6 below).
The peptide formulation to be injected (emulsion) was prepared freshly on each day of injection and for each group. A mix for 10 animals was prepared using 2 mL luer lock syringes (4606701 V, B BRAUN) and luer lock female-female Combifix® Adapter (B. Braun, 5206634): 500 μL of peptide mixture in syringe 1 was emulsified with 500 μL of Montanide ISA 51 VG (Seppic) contained in syringe 2. The emulsification process was performed first by pushing the peptide mixture contained in syringe 1 into syringe 2 (containing Montanide) at very low speed. Transfer of the mixture from one syringe to another was then performed at very low speed during 6 cycles (one cycle corresponding to one passage from one syringe to another), and secondly at high speed, as fast as possible, for 1 minute. Each emulsion was prepared in excess to compensate for the dead volumes at injection.
The animals were immunized on day 0 (d0) with a prime injection, and on d14 with a boost injection. Each mouse was injected s.c. on the loose skin over the neck of the animals with 100 μL of an oil-based emulsion that contained: • 30 nmol of vacc-pAg and 30 or 100 μg of UCP2 helper peptide in 50 μL of a dedicated final solvent • Montanide ISA 51 VG (Seppic) added at 1:1 (v:v) ratio (50 μL per mouse).
Seven days after the boost injection (i.e. on d21), the animals were euthanized and the spleen was harvested. Splenocytes were prepared by mechanical disruption of the organ followed by 70 μm-filtering and Red blood cell lysis.
The cell suspensions were further used in an ELISPOT-IFN assay (Table 5). The cells were cultured in 200 μL of complete T cell medium. Experimental conditions (duplicates) were as follow: 2×10^5 total cells per well when cultured in presence of various pAg (10 μM) or medium-only; and 2×10^4 total cells when cultured in presence of the positive control PMA/lonomycin (PMA: Sigma P8139: 0.1 μM final; lonomycin: Sigma 10634: 1 μM final). The cultures were assessed for their capacity to secrete IFN (mouse IFN-ELISpotPLUS kit, Mabtech 3321-4APT-10), following the manufacturer's instructions (˜12-48h incubation time before performing the assay). The peptides used for restimulation are described in Table 7.
Spots were counted on a an iSpot Fluorospot Reader System (AID). Data plotting and statistical analysis were performed with the Prism-9 software (GraphPad Software Inc.).
The data were provided as a number of spots per 1·10^6 total T cells. The individual average values (obtained from the duplicates) were next used to plot the group average values. Statistical analysis for comparison (to the irrelevant peptide condition) were performed using unpaired non-parametric test (Mann Whitney) (**: p<0.01; *: p<0.05).

[2] = system: T2 cell lines loaded with bacterial peptide or human counterpart peptide; test: Cytotoxic assay of peptide-specific CD8+ T cells against peptide-loaded T2 cells; type: cell-based
Source text: CD8+ T cells expanded per above were used to perform cytotoxic assays in presence of different ratios of target and effector cells to assess their cytotoxic capacity, using flow cytometry readout. Target cells were T2 cell lines loaded with bacterial peptide or human counterpart peptide. As a negative control T2 cells unloaded and T2 cells loaded with irrelevant peptide were employed.

[3] = target: T2, HLA-A*0201 molecule expressed on human T2 cells (human); test: T2 cell HLA-A*0201 binding assay, anti-HLA-A2-PE flow cytometry
T2 construct: surface HLA-A2 detected with anti-HLA-A2-PE (clone REA517); also called HLA-A2
Procedure: as §1, with “(5·10⁴” for “(5·10^4”, “hours. Cells are then washed two times and marked with the anti-HLA-A2 antibody coupled to PE (clone REA517, Miltenyi).” for “hours.”
For each peptide concentration, the geometric mean of the labelling associated with the peptide of interest is subtracted from background noise and reported as a percentage of the geometric mean of the HLA-A*0202 labelling obtained for the reference peptide HIV pol 589-597 at a concentration of 100 μM.

[4] = T cell clones expanded in vitro, flow cytometry readout (FIG. 18)

## AINPELLQL (listed as Homo sapiens) [KIF2C-H1]
HLA-A*0201
  Concentration of peptide that induces 20% of HLA-A2 expression: 22.55 µM

## ALIFGQLLL [TOP2A-B2]
HLA-A*0201
  Concentration of peptide that induces 20% of HLA-A2 expression: 1.79 µM
[1]
  immunogenicity: T cell response in ELISPOT-IFNγ: induced significant T cell responses; also recorded: strongly immunogenic; also recorded: induced strong immune responses
  cross-reactivity of induced T cells with the corresponding human peptide in ELISPOT-IFNγ: able to drive an effective immune response against the corresponding human peptide; also recorded: Cross-reactivity

## ALNPELLAL [KIF2C-B1, ALNPELLAL]
[2]
  cytotoxic capacity of peptide-specific T cells against T2 cells loaded with bacterial or human peptides: have the ability to kill T2 cells loaded with bacterial or human peptides
  cytotoxic capacity of peptide-specific human T cell clones against T2 cells loaded with the bacteria peptide: have the capacity to kill T2 cells
  cytotoxic capacity of peptide-specific human T cell clones against T2 cells loaded with the human peptide: able to kill T2 cells loaded with the human

## ALYDVRTIL (listed as Homo sapiens) [UBE2C-H1]
HLA-A*0201
  Concentration of peptide that induces 20% of HLA-A2 expression: 14.98 µM

## ALYDVRTILL (listed as Homo sapiens) [UBEC2-H11]
HLA-A*0201
  Concentration of peptide that induces 20% of HLA-A2 expression: 14.87 µM

## ALYSEILTV [ANKRD30A-B1]
HLA-A*0201
  Concentration of peptide that induces 20% of HLA-A2 expression: 0.05 µM
[1]
  immunogenicity: T cell response in ELISPOT-IFNγ: induced significant T cell responses; also recorded: strongly immunogenic; also recorded: induced strong immune responses
  cross-reactivity of induced T cells with the corresponding human peptide in ELISPOT-IFNγ: able to drive an effective immune response against the corresponding human peptide; also recorded: Cross-reactivity

## AQIGIVAVV (listed as Homo sapiens) [OR51E2-H1]
HLA-A*0201
  Concentration of peptide that induces 20% of HLA-A2 expression: 5.68 µM

## AVIGIVAAV [OR51E2-B1]
HLA-A*0201
  Concentration of peptide that induces 20% of HLA-A2 expression: 0.7 µM

## FLYDVRTYL [UBE2C-B1]
[2]; [4]
  cytotoxic capacity of peptide-specific human T cell clones against T2 cells loaded with the bacteria peptide: have the capacity to kill T2 cells
  cytotoxic capacity of peptide-specific human T cell clones against T2 cells loaded with the human peptide: able to kill T2 cells loaded with the human
[2]; legend of FIG. 18
  cytotoxic capacity of peptide-specific T cells against T2 cells loaded with bacterial or human peptides: have the ability to kill T2 cells loaded with bacterial or human peptides

## ILLSIQSLL (listed as Homo sapiens) [UBE2C-H2]
HLA-A*0201
  Concentration of peptide that induces 20% of HLA-A2 expression: 3.27 µM

## IVWSDVTYV [MMP11-B1]
HLA-A*0201
  Concentration of peptide that induces 20% of HLA-A2 expression: 0.08 µM

## KIIGIILAV [CDH17-B1]
[1]
  immunogenicity: T cell response in ELISPOT-IFNγ: induced significant T cell responses; also recorded: strongly immunogenic; also recorded: induced strong immune responses
  cross-reactivity of induced T cells with the corresponding human peptide in ELISPOT-IFNγ: able to drive an effective immune response against the corresponding human peptide; also recorded: Cross-reactivity

## KILDTVHSC (listed as Homo sapiens) [ANKRD30A-H2]
HLA-A*0201
  Concentration of peptide that induces 20% of HLA-A2 expression: 25.32 µM

## KVWSDVTPL (listed as Homo sapiens) [MMP11-H1]
HLA-A*0201
  Concentration of peptide that induces 20% of HLA-A2 expression: 0.65 µM

## LILDTVHSL [ANKRD30A-B2]
HLA-A*0201
  Concentration of peptide that induces 20% of HLA-A2 expression: 1.13 µM

## LVIGIILAV (listed as Homo sapiens) [CDH17-H1]
HLA-A*0201
  Concentration of peptide that induces 20% of HLA-A2 expression: 14.06 µM

## QMNPELLTL [KIF2C-B11]
HLA-A*0201
  Concentration of peptide that induces 20% of HLA-A2 expression: 0.909 µM

## RLQQELMTL (listed as Homo sapiens) [UBE2C-H3]
HLA-A*0201
  Concentration of peptide that induces 20% of HLA-A2 expression: 1.06 µM

## SLDQKLFQL (listed as Homo sapiens) [ANKRD30A-H3]
HLA-A*0201
  Concentration of peptide that induces 20% of HLA-A2 expression: 0.32 µM

## SLLSIQSYV [UBE2C-B2]
HLA-A*0201
  Concentration of peptide that induces 20% of HLA-A2 expression: 0.22 µM

## SLPDRILDA (listed as Homo sapiens) [CDC20-H1, reference compound]
HLA-A*0201
  Concentration of peptide that induces 20% of HLA-A2 expression: 4.57 µM
[1]
  cross-reactivity of induced T cells with the corresponding human peptide in ELISPOT-IFNγ: Cross-reactivity

## SLPDRILTV [CDC20-B1]
[2]
  cytotoxic capacity of peptide-specific T cells against T2 cells loaded with bacterial or human peptides: have the ability to kill T2 cells loaded with bacterial or human peptides
  cytotoxic capacity of peptide-specific human T cell clones against T2 cells loaded with the bacteria peptide: have the capacity to kill T2 cells
  cytotoxic capacity of peptide-specific human T cell clones against T2 cells loaded with the human peptide: able to kill T2 cells loaded with the human

## TLDQKLFMV [ANKRD30A-B3]
HLA-A*0201
  Concentration of peptide that induces 20% of HLA-A2 expression: 0.14 µM

## VLNPELLML [KIF2C-B13]
HLA-A*0201
  Concentration of peptide that induces 20% of HLA-A2 expression: 0.189 µM

## VMNPELLLL [KIF2C-B12]
HLA-A*0201
  Concentration of peptide that induces 20% of HLA-A2 expression: 0.258 µM

## YLILEYAPL (listed as Homo sapiens) [AURKA-H1]
HLA-A*0201
  Concentration of peptide that induces 20% of HLA-A2 expression: 12.2 µM

## YLYDVRTAL [UBE2C-B11, b339 prints …]
HLA-A*0201
  Concentration of peptide that induces 20% of HLA-A2 expression: 0.87 µM

## YLSGANLFV (also called CEACAM-B1; ENT188_B1) [CEACAM5-B1]
[3]
  concentration of peptide that induces 20% of HLA-A2 expression: 0.5 µM
  in vitro binding affinity (relative affinity, normalized against HIV-pol): 0.5 ratio to HIV pol reference peptide
  mean relative fluorescence intensity at 0.1 µM peptide: 7.7 % of HIV pol reference peptide
  mean relative fluorescence intensity at 1 µM peptide: 30.8 % of HIV pol reference peptide
  mean relative fluorescence intensity at 10 µM peptide: 69.2 % of HIV pol reference peptide
  mean relative fluorescence intensity at 100 µM peptide: 76 % of HIV pol reference peptide
